These results are taken from article PMC4232355.

The assay deals with recombinant integrin αvβ3 (UniProt P06756). Briefly: ELISA; integrin competitive binding assay: wells coated with 0.05 µg/well recombinant integrin αvβ3; 5 nM biotinylated-GRGDS with or without various peptides (20 nM) or serially diluted cyclic-(GRGDSP), 3 hr at room temperature, binding buffer with 1 mM MnCl2; bound biotinylated-GRGDS detected with streptavidin-HRP polymer.

As for SDESDTNSESANESGSRGDA [C-opened RGD], the inhibitory activity of 20 nM peptide, as the equal concentration of cyclic-(GRGDSP) worked out at 5.27 nM and the inhibitory activity of 20 nM peptide, percent of that of 20 nM cyclic-(GRGDSP) came to 26.5%.
For the molecule SRGDASYTSDESSDDDNDSDSH [N-opened RGD], the inhibitory activity of 20 nM peptide, as the equal concentration of cyclic-(GRGDSP) stood at 3.3 nM and the inhibitory activity of 20 nM peptide, percent of that of 20 nM cyclic-(GRGDSP) was determined as 16.5%.
